Measurements published in patent US20250066490A1, “ANTI-CD70 ANTIBODIES, CONJUGATES THEREOF AND METHODS OF USING THE SAME” (ProfoundBio US Co., priority 2021, published 2025).

How the values were obtained:
cyno CD70 ECD = experiment: Biolayer interferometry (BLI), cyno CD70; assay type: binding
Caki-1 cells = experiment: Internalization by FACS immune-fluorescence staining, Caki-1; assay type: cell-based, human
Method: Briefly, 2×10^5 cells were harvested from a tissue culture flask by treatment with 0.25% Trypsin/EDTA and then incubated with 10 μg/ml of the lead antibodies or control antibodies in FACS buffer (1×PBS with 0.1% BSA) for 30 mins at 4° C. The cells were washed at 4° C. to remove unbound antibodies and kept on ice or shifted to 37° C. At the set time points (0 h, 4 h, 24 h), cells were incubated with PE-conjugated anti human Fc (Abcam, Ab98596) for 30 mins at 4° C. and then analyzed by flow cytometry. The internalization ratio was calculated by subtracting the 37° C. MFI from the 4° C. MFI, and then compared with 4° C. MFI.
(§1) Four cell lines ([…]), Caki-1, Raji, MCF-7) were utilized in the internalization assay. Target (CD70) copy numbers were determined via the QIFIKIT (DAKO, K0078). Briefly, cells were labeled with a primary mouse monoclonal antibody against CD70. Cells, Set-up beads, Calibration beads (from the kit) were then labeled in parallel with a fluorescein-conjugated anti-mouse secondary antibody. The fluorescence is correlated with the number of bound primary antibody molecules on the cells and on the beads. Samples were subsequently analyzed on the flow cytometer and copy number determined based on the calibration curve (Table 11). For internalization assay, 3×10^5 cells were incubated at 4° C. for 30 min with 10 µg/ml 2E7 in FACS buffer (1×PBS containing 0.1% BSA). Cells were washed at 4° C. to remove unbound material and kept on ice or shifted to 37° C. for different lengths of time. At progressive timepoints ([…], 0.5, 1, 2, 3, 4 hr) cells were stained with PE-conjugated anti-human Fc for 30 min at 4° C. and analyzed by flow cytometry. Internalization rate were calculated by subtracting the mean fluorescence intensity (MFI) of cell surface-bound antibody at 37° C. at each time point from the MFI of cell surface-bound antibody at 4° C. at time 0, then divided by the MFI of the cell surface-bound antibody at 4° C. at time 0.

[1] = tested on: CD70-negative cell line (MCF-7); experiment: Internalization time course, MCF-7; assay type: cell-based; conditions: MCF-7, up to 4 hr, FIG. 13
Method: as §1

[2] = biological target: T1, rat CD70 extra-cellular domain (ECD) (Rattus norvegicus, UniProt M0R613); experiment: Biolayer interferometry (BLI), rat CD70; assay type: binding; conditions: for Response: *Response below range of quantification
T1 construct: human, rat, or mouse CD70 extra-cellular domain (ECD) linked to His tag; His tag; purchased ACRO systems
T1 sequence (M0R613 1-194): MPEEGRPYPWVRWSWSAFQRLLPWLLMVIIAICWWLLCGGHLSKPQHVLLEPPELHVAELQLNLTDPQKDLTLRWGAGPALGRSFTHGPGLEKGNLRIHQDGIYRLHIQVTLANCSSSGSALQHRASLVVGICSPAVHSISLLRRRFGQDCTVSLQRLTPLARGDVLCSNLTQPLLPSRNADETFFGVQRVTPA
Method: Recombinant proteins consisting of human, rat, or mouse CD70 extra-cellular domain (ECD) linked to His tag was purchased (from ACRO systems). 69A7 and 2E7 (20 nM) were immobilized on anti-human IgG Fc biosensor tips (ForteBio). Binding assays using one concentration (100 nM) of recombinant protein in solution were performed using Octet RED (ForteBio). Association time was set at 180s and dissociation time was set at 300s. Binding affinity was calculated using ForteBio Data Acquisition 6.3 software. Affinity was derived by fitting the kinetic data to a 1:1 Langmuir binding model utilizing global fitting algorithms. […] Binding assays for 2E7 using multiple dilutions (from 200 nM down to 3.13 nM) of species' recombinant CD70 ECD proteins in solution were also performed using the same method.

[3] = Hydrophobic interaction chromatography (HIC); assay type: physicochemical; conditions: full IgG
Method: Antibodies were purified from cleared cell culture supernatants using Protein A chromatography (Protein A resin slurry, 4.5 mL, Bogen, Cat #18-0010-02). Briefly, supernatants were prepared for affinity chromatography and loaded onto the columns and allowed to flow completely through the resin. The columns were washed with binding buffer containing 0.15M NaCl and 0.2M PB, PH7.0. Antibody was eluted with elution buffer containing 0.15M NaCl, 0.1M Glycine and 0.2M PB, PH 3.0. Fractions were collected and neutralized by the addition of 1/10 volume of 1M Tris, PH9.0. The fractions were dialyzed for 2 hours against 1×PBS. Purified antibody was quantified by absorbance at A280. Samples from each step of the protein A chromatography were applied onto 12% SDS-PAGE gels for reduced and non-reduced electrophoresis. The hydrophobicity was assessed with hydrophobic interaction chromatography (HIC) on a TSK gel Butyl-NPR, 4.6×100 mm with Butyl-NPR (Tosoh corporation) using a Waters HPLC 2695 system.

[4] = tested on: cynomolgus CD70 recombinant protein; experiment: Antibody binding ELISA, cynomolgus CD70; conditions: full IgG, FIG. 3
Method: The binding specificity of the CD70 antibodies was tested by ELISA according to a standard protocol. Briefly, 96-well micro-plates were coated with 2 μg/ml of human or cynomolgus CD70 recombinant protein in PBS at 100 μl per well and incubated overnight at 4° C. The plates were washed twice with TBS+0.5% Tween20. 200 μL of blocking buffer (2% BSA in PBS) was added to each well, and the plates were incubated at 37° C. for 2 hours. The plates were washed using the wash buffer mentioned above. Serially diluted antibodies were added to the ELISA plates using 100 μl per well, and the plates were incubated for 1 hour at room temperature. Then plates were washed 3 times. HRP conjugated anti-human Fc antibody solution (Sigma, I18885-2ML, diluted with blocking buffer) was added to the plates using 100 μl per well. The plates were incubated at room temperature for 1 hour and then washed 3 times. Then the TMB solution was added to plates using 100 μl per well and the plates were placed at RT for 5-15 mins. Then the stop solution (2M H2SO4) was added using 50 μl per well. The absorbance was measured at A450 and A630.

B1: 2E7: anti-CD70 antibody clone, VH SEQ 7 and VL SEQ 8; tested as scFv and full human IgG1/kappa (antibody, V domains shown)
VH: QVQLQESGPGLVKPSETLSLTCTVSGGSVSSDYYYWSWIRQPPGKGLEWLGYIYYSGSTNYNPSLKSRVTISVDTSKNQFSLKLRSVTTADTAVYYCARGDGDFLGVCFDYWGQGTLVTVSS
VL: EIVLTQSPATLSLSPGERATLSCRASQSVSSYLAWYQQKPGQAPRLLIFDASNRATGIPARFSGSGSGTDFTLTISSLEPEDFAVYYCQQRSNWPLTFGGGTKVEIK
modifications: Synthetic 2E7 VH amino acid sequence; Synthetic 2E7 VL amino acid sequence
notes: tested as scFv and full human IgG1/kappa
Cyno CD70 ECD; CYNO CD70 3.13 nM
  Response: 0.1275
Cyno CD70 ECD; CYNO CD70 6.25 nM
  Response: 0.204
Cyno CD70 ECD; CYNO CD70 12.5 nM
  Response: 0.2927
Cyno CD70 ECD; CYNO CD70 25 nM
  Response: 0.3702
Cyno CD70 ECD; CYNO CD70 50 nM
  Response: 0.4136
Cyno CD70 ECD; CYNO CD70 100 nM
  Response: 0.4825
Cyno CD70 ECD; CYNO CD70 200 nM
  Response: 0.4991
Cyno CD70 ECD; CYNO CD70, multiple dilutions 200-3.13 nM, global fit
  ka: 617800 M⁻¹ s⁻¹
Caki-1 cells; Caki-1, based on the cell binding affinity
  absolute amount of antibody internalized into cell vs parent antibody 69A7: higher absolute amount of antibody internalized into cell than the parent antibody 69A7
Caki-1 cells; Caki-1, up to 4 hr, FIG. 13
  internalization, time course: rapid internalization
[1]
  internalization, time course: no internalization
[2]; RAT CD70 3.13 nM
  Response: *0.0012
[2]; RAT CD70 6.25 nM
  Response: *0.0192
[2]; RAT CD70 12.5 nM
  Response: *−2.762E−03
[2]; RAT CD70 25 nM
  Response: *0.0069
[2]; RAT CD70 50 nM
  Response: *0.0126
[2]; RAT CD70 100 nM, dilution series
  Response: *0.0271
[2]; RAT CD70 200 nM
  Response: *0.0054
[2]; RAT CD70, multiple dilutions 200-3.13 nM, global fit, responses below range of quantification
  ka: 5.905e+06 M⁻¹ s⁻¹
[2]; Rat CD70 100 nM, one concentration
  Response: *0.0125
[2]; Rat CD70 100 nM, one concentration, response below range of quantification
  ka: 4641 M⁻¹ s⁻¹
[2]; multiple dilutions, Table 10
  cross-reactivity to rat CD70: no cross-reactivity
[2]; one concentration (100 nM), Table 9
  cross-reactivity to rat CD70: no cross-reactivity
[3]; HIC
  hydrophobicity compared with the parent antibody 69A7: slightly more hydrophobic than the parent antibody 69A7
[3]; hydrophobicity by HIC
  Retention time: 10.19 min
[4]
  cross binding activity to the cyno-antigen: better cross binding activity to the cyno-antigen than antibody 69A7
